Source: patent publication US20240294593A1 (Genentech, published 2024)
Substitutions are numbered along the chain they refer to. In names and notes the source's numbering stands.

B1: H1_L1.127 (antibody, V domains shown)
VH: EVQLVESGGGLVQPGGSLRLSCAASGFTFSSFGMHWVRQAPGKGLEWVSYISSGSSIIYYADSVKGRFTISRDNAKNSLYLQMNSLRAEDTAVYYCARGGRLVWSPDYWGQGTLVTVSS
VL: DIVMTQSPDSLAVSLGERATINCKSSQSLLNSGNQKNYLTWYQQKPGQPPKLLIYWASTRESGVPDRFTGSGSGTDFTLTISSLQAEDVAVYYCQNDYSHPFTFGSGTKLEIKR
notes: also called VL-Y100H; Kabat 94
B2: H1_L1.129 (antibody, human IgG1, kappa, V domains shown)
VH: B1 VH
VL: B1 VL with H100W
notes: also called VL-Y100W; Kabat 94
B3: H1_L1.134 (antibody, V domains shown)
VH: B1 VH
VL: B1 VL with H100K
notes: also called VL-Y100K; Kabat 94
B4: H1_L1.133 (antibody, V domains shown)
VH: B1 VH
VL: B1 VL with H100D
notes: also called VL-Y100D; Kabat 94
B5: H1_L1.128 (antibody, V domains shown)
VH: B1 VH
VL: B1 VL with H100L
notes: also called VL-Y100L; Kabat 94
B6: H1_L1.132 (antibody, V domains shown)
VH: B1 VH
VL: B1 VL with H100Q
notes: also called VL-Y100Q; Kabat 94
B7: H1.178_L1.140 (XENP32424) (antibody, V domains shown)
VH: B1 VH with F32L, S53G, R101F, W104F
VL: B1 VL with N31H, K36Y, S99T, H100Y
notes: VH-F34L/S55G/R109F/W112F, VL-N31H/K36Y/S99T (Xencor #); Kabat positions VH-32/52A/97/100, VL-27D/30/93; also called mAb C[PD-1]_H1.178_L1.140; copies: 2 + 2
B8: H1.181_L1.140 (XENP32427) (antibody, V domains shown)
VH: B1 VH with F32L, S53G, R101Q, W104F
VL: B1 VL with N31H, K36Y, S99T, H100Y
notes: VH-F34L/S55G/R109Q/W112F, VL-N31H/K36Y/S99T (Xencor #); Kabat positions VH-32/52A/97/100, VL-27D/30/93; also called mAb C[PD-1]_H1.181_L1.140; copies: 2 + 2
B9: H1.185_L1.140 (XENP32431) (antibody, V domains shown)
VH: B1 VH with F32L, S53G, R101H, W104F
VL: B1 VL with N31H, K36Y, S99T, H100Y
notes: VH-F34L/S55G/R109H/W112F, VL-N31H/K36Y/S99T (Xencor #); Kabat positions VH-32/52A/97/100, VL-27D/30/93; also called mAb C[PD-1]_H1.185_L1.140; copies: 2 + 2
B10: H1.186_L1.140 (XENP32432) (antibody, V domains shown)
VH: B1 VH with F32L, S53G, R101A, W104F
VL: B1 VL with N31H, K36Y, S99T, H100Y
notes: VH-F34L/S55G/R109A/W112F, VL-N31H/K36Y/S99T (Xencor #); Kabat positions VH-32/52A/97/100, VL-27D/30/93; also called mAb C[PD-1]_H1.186_L1.140; copies: 2 + 2
B11: H1.179_L1.140 (XENP32425) (antibody, V domains shown)
VH: B1 VH with F32L, S53G, R101Y, W104F
VL: B1 VL with N31H, K36Y, S99T, H100Y
notes: VH-F34L/S55G/R109Y/W112F, VL-N31H/K36Y/S99T (Xencor #); Kabat positions VH-32/52A/97/100, VL-27D/30/93; also called mAb C[PD-1]_H1.179_L1.140; copies: 2 + 2
B12: H1.182_L1.140 (XENP32428) (antibody, V domains shown)
VH: B1 VH with F32L, S53G, R101L, W104F
VL: B1 VL with N31H, K36Y, S99T, H100Y
notes: VH-F34L/S55G/R109L/W112F, VL-N31H/K36Y/S99T (Xencor #); Kabat positions VH-32/52A/97/100, VL-27D/30/93; also called mAb C[PD-1]_H1.182_L1.140; copies: 2 + 2
B13: H1.187_L1.140 (XENP32433) (antibody, V domains shown)
VH: B1 VH with F32L, S53G, R101W, W104F
VL: B1 VL with N31H, K36Y, S99T, H100Y
notes: VH-F34L/S55G/R109W/W112F, VL-N31H/K36Y/S99T (Xencor #); Kabat positions VH-32/52A/97/100, VL-27D/30/93; also called mAb C[PD-1]_H1.187_L1.140
B14: H1.184_L1.140 (XENP32430) (antibody, V domains shown)
VH: B1 VH with F32L, S53G, R101D, W104F
VL: B1 VL with N31H, K36Y, S99T, H100Y
notes: VH-F34L/S55G/R109D/W112F, VL-N31H/K36Y/S99T (Xencor #); Kabat positions VH-32/52A/97/100, VL-27D/30/93; also called mAb C[PD-1]_H1.184_L1.140; copies: 2 + 2
B15: mAb C[PD1]_H1.176_L1.140 (bivalent IgG1) (antibody, V domains shown)
VH: B1 VH with F32L, W104F
VL: DIVMTQSPDSLAVSLGERATINCKSSQSLLHSGNQYNYLTWYQQKPGQPPKLLIYWASTRESGVPDRFTGSGSGTDFTLTISSLQAEDVAVYYCQNDYTYPFTFGSGTKLEIK
notes: Bivalent IgG1 format with E233P/L234V/L235A/G236_/S267K
B16: H1.188_L1.140 (XENP32434) (antibody, V domains shown)
VH: B1 VH with F32L, S53G, R101T, W104F
VL: B1 VL with N31H, K36Y, S99T, H100Y
notes: VH-F34L/S55G/R109T/W112F, VL-N31H/K36Y/S99T (Xencor #); Kabat positions VH-32/52A/97/100, VL-27D/30/93; also called mAb C[PD-1]_H1.188_L1.140
B17: mAb C[PD1]_H1.180_L1.140 (bivalent IgG1) (antibody, V domains shown)
VH: B1 VH with F32L, S53G, R101E, W104F
VL: B1 VL with N31H, K36Y, S99T, H100Y
notes: Bivalent IgG1 format with E233P/L234V/L235A/G236_/S267K; copies: 2 + 2

target: T1, human PD-1-His (human, UniProt Q15116 25-167, limits assumed); assay: Octet
T1 construct: Antigen of the Octet assays; not shown: His tag
T1 sequence (Q15116 25-167 limits assumed): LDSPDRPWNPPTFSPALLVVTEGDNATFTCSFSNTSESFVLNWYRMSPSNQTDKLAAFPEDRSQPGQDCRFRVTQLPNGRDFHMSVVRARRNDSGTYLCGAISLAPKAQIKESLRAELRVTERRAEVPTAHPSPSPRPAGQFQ

Kd [nM] | koff [s⁻¹] | kon [M⁻¹ s⁻¹] | Binder
55.5 | 0.00741 | 133000 | B1
9.44 | 0.001 | 106000 | B2
91.3 | 0.0153 | 168000 | B3
405 | 0.0264 | 65100 | B4
186 | 0.0911 | 490000 | B5
37 | 0.00615 | 166000 | B6

target: T1, human PD-1-His; assay: Octet (BLI), bivalent IgG1 mAb

koff [s⁻¹] | kon [M⁻¹ s⁻¹] | Binder
0.000182 | 184000 | B7
0.000173 | 191000 | B8
0.000169 | 160000 | B9
0.000179 | 189000 | B10
0.00017 | 197000 | B11
0.000176 | 187000 | B12
0.000198 | 193000 | B13
0.000188 | 236000 | B14
0.000278 | 131000 | B15
0.000177 | 181000 | B16
0.000154 | 256000 | B17

target: T1, human PD-1-His; assay: Octet (BLI), bivalent IgG1 mAb; legend calls the constant apparent (KDapp)

Kd [nM] | Binder
0.986 | B7
0.905 | B8
1.06 | B9
0.945 | B10
0.864 | B11
0.943 | B12
1.03 | B13
0.798 | B14
2.13 | B15
0.981 | B16
0.601 | B17
